The values that follow come from patent US20250084126A1, “PEPTIDE AND COMPOSITION” (OSAKA UNIVERSITY, priority 2021, published 2025).

No end group written: not given here.

Data set [1] concerns hDPSCs. The experiment in a line: LDH-assay cytotoxicity to hDPSCs. The data set is classed as cell-based, human. Conditions: for cytotoxicity compared to the control (LDH-assay): 2 days, control PBS, p<0.05; for cytotoxicity, overall conclusion: 0.1-100 μg/ml, versus PBS. How it is done:
The hDPSCs were seeded in α-MEM medium containing 10% FBS added with the four peptides at concentrations of 0.1, 1, 10, and 100 μg/ml in a 96 well plate at 5,000 cells/well and cultured at 37° C. for 2 days in a 5% CO2 gas phase. For toxicity test, culture supernatant was collected and LDH-assay was performed using LDH Cytotoxicity Detection Kit (Takara Bio Inc., Shiga). A reagent was added to the collected culture supernatant, and the culture supernatant was placed at 37° C. for 30 minutes in the 5% CO2 gas phase. The absorbance at 405 nm was then measured using the microplate reader (ARVO MX). To further evaluate the proliferative capacity, WST-1-assay was performed using Premix WST-1 Cell Proliferation Assay System (Takara Bio Inc.) after the cells had been continuously cultured for 1 day. The culture was added with a WST-1 reagent and allowed to stand for 30 minutes at 37° C. in the 5% CO2 gas phase. After shaking for 1 minute at room temperature, the absorbance at 450 nm was measured using the microplate reader (ARVO MX). A sample in which the PBS was added to the culture was used as a control, and the number of samples was 6 for each condition.
(§1) The statistical significance test in the above experiment was performed using the One-way ANOVA and Tukey's test for a cytotoxicity test and Kruskal-Wallis-test for a cell proliferation test and a comparison of the amount of formed tertiary dentin in the direct pulp capping experiment, with a critical value of 5%.

The subject of another data set is pulp cells. Conditions: reported in Non Patent Literature 1; cited from earlier work.
The subject of data set [2] is exposed pulp of rat molars. The experiment in a line: Direct pulp capping experiment using Protein S100 family-derived peptide. Type of data set: in vivo. Conditions: 4 weeks; for structure of the tertiary dentin compared to the samples treated with the peptides (HE staining): 1 μg/ml; for number of samples with tertiary dentin formation that completely sealed the exposed pulp region: micro-CT scoring, n=8 per condition, peptides 100 μg/ml, recombinant proteins 1 μg/ml, 20 μl in gelatin sponge; for closure of the surface of the exposed pulp (HE staining): representative samples with complete tertiary dentin formation. How it is done: To evaluate the effect of the Protein S100 family-derived peptide on ability of forming of the tertiary dentin, a direct pulp capping experiment was performed on rat molars using a gelatin sponge (Spongel®) soaked with 20 μl of each PBS solution containing the No. 28, No. 47, No. 32, or No. 51 peptide at a concentration of 100 μg/ml using the same way as described in the section 1) of “Materials and Methods” of the section 1 of the section I above. PBS solution containing the S100-A8 (PROSPEC, Israel), the PBS solution containing the S100-A9 (PROSPEC), wherein the S100-A8 and S100-A9 are a recombinant of the protein from which the peptide was derived, at a concentration of 1 μg/ml, and the PBS solution alone were used as controls. After 4 weeks from the capping treatment, the micro-CT imaging and image analysis were performed on the tertiary dentin formed just below the exposed pulp. An evaluation method, in which the amount of formed tertiary dentin observed in histopathological images was scored, in the direct pulp capping experiment conducted by Okamoto et al. in the past, was applied to the micro-CT images in this study, and the evaluation was performed by scoring the formed tertiary dentin [Clinical Oral Investigations 2018, 22(8):2879-2887; Journal of Dentistry 2010, 38(10):828-837]. The evaluation was performed by one person, with a score of Grade 0 in cases where the tertiary dentin was formed in only one-third or less of the exposed pulp region, Grade 1 in cases where the tertiary dentin was formed in one-third to two-thirds of the exposed pulp region, Grade 2 in cases where the tertiary dentin was formed in two-thirds or more of the exposed pulp region, and Grade 3 in cases where the formed tertiary dentin was completely covering the exposed pulp region. In addition, the same micro-CT images were analyzed using the same way as described in the section 2) of “Materials and Methods” of the section 1 of the section I above to evaluate the volume of the formed tertiary dentin. HE staining was also performed using the same way as described in the section 3) of “Materials and Methods” of the section 1 of the section I above, and histopathological evaluation of the formation of the tertiary dentin was performed. The number of samples was 8 for each condition.
as §1

For data set [3], the system named is hDPSCs. The experiment in a line: Proteome analysis (LC-MS/MS) of proteins expressed by hDPSCs. The data set is classed as cell-based, human. The settings on record: 0.1 mM, 7 days. Here is the method:
The No. 28 peptide or the recombinant S100-A8, the protein from which the No. 28 peptide is derived, was applied to the hDPSCs to compare and quantify the proteins expressed by the hDPSCs by the LC-MS/MS. The hDPSCs were seeded in a 100 mm cell culture dish at 3,000,000 cells/plate in the mineralization induction medium containing each of the samples containing the No. 28 peptide or the S100-A8 at a concentration of 0.1 mM, and cultured at 37° C. in the 5% CO2 gas phase for 7 days. Then, plasma membrane and cytoplasmic proteins were extracted using a plasma membrane protein extraction kit (Cosmo Bio Co., Ltd., Tokyo). As a practical procedure, the hDPSCs were cultured for 7 days, collected with a scraper, added with Buffer A included in the kit, and left on ice for 10 minutes. The hDPSCs were then transferred into a microtube with a filter cartridge included in the kit and centrifuged at 14,000 rpm for 30 seconds. After discarding the cartridge and agitating for 10 seconds, the microtube was centrifuged at 3000 rpm for 1 minute and the supernatant was collected. The collected supernatant was then centrifuged at 14,000 rpm for 30 minutes to extract the cytoplasmic proteins separated in a supernatant and the plasma membrane proteins separated in pellet. As a control, the hDPSCs cultured in mineralization induction medium supplemented with the PBS were used.
Each sample was analyzed by liquid chromatography using UltiMate 3000 Nano LC systems (Thermo Fisher Scientific, USA) and ESI-column (0.075×150 mm) (Thermo Fisher Scientific). A 0.1% formic acid aqueous solution containing acetonitrile was used as a mobile phase at a flow rate of 300 nL/min. The concentration of acetonitrile was 5% for the first 5 min, increased to 40% in 95 min, then increased at a constant rate for 2 min to 90%, and maintained for 5 min. The peptides were analyzed using Q-Exactive (Thermo Fisher Scientific). Identification and quantitative analysis of the proteins were performed by peptide mass fingerprinting using Mascot Distiller v2.5, Mascot Server v2.5 (Matrix Science, USA), and UniProt on obtained MS/MS spectra.
In addition, to evaluate changes in expression levels of the proteins, the following criteria were used to narrow down the identified plasma membrane-derived and cytoplasm-derived proteins among the samples.
• Proteins whose measured values were higher in the S100-A8 group than in the control group • Proteins whose measured values in the peptide group are more than twice as high as those in the control group • Proteins whose measured values in both the peptide group and the S100-A8 group are equal to or greater than 1 (a.u.; arbitrary unit)
• Proteins whose measured values were lower in the S100-A8 group than in the control group • Proteins whose measured values in the control group are more than twice as high as those in the peptide group • Proteins whose measured values in the control group are equal to or greater than 1 (a.u.; arbitrary unit)
Each of the groups narrowed down by the above criteria was analyzed using Gene Ontology (GO) classification. The GO provides an internationally standardized GO Term, which is intended to describe biological functions. The GO Term is organized in a hierarchical structure, with the upper order representing general functions and the lower order representing more detailed functions. For example, there are three categories at the top: “Molecular function,” “Biological process,” and “Cellular component.”
The GO Term belonging to “Molecular function” and “Biological process” which represent their respective functions from the above classification were searched for the protein groups obtained in this experiment, and the functions characteristic to each protein group were examined.

Another data set has as its system exposed pulp. The settings on record: rat in vivo, reported in Non Patent Literature 1; cited from earlier work.
[4] abbreviates: mineralization induction medium, count for No. 28 peptide or S100-A8 jointly.

For “NTDGAVNFQ [No. 32 peptide, Asn-Thr-Asp-Gly-Ala-Val-Asn-Phe-Gln]”, the “cytotoxicity compared to the control (LDH-assay)” value in the data set on hDPSCs [1] (1 μg/ml) is recorded as “significantly lower cytotoxicity”. Besides, the “cytotoxicity, overall conclusion” value in the data set on hDPSCs [1] is recorded as “comparable to that of the PBS”.
As for “NADKQLSFE [No. 51 peptide, Asn-Ala-Asp-Lys-Gln-Leu-Ser-Phe-Glu]”, the “cytotoxicity compared to the control (LDH-assay)” value with hDPSCs [1] (10 μg/ml) and with hDPSCs [1] (100 μg/ml) was “significantly lower cytotoxicity” each time. For the same molecule, the “cytotoxicity, overall conclusion” value in the data set on hDPSCs [1] is “comparable to that of the PBS”.
For “KLLETECPQ [No. 28 peptide, Lys-Leu-Leu-Glu-Thr-Glu-Cys-Pro-Gln]”, the “cytotoxicity, overall conclusion” value in the data set on hDPSCs [1] is “comparable to that of the PBS”. Also, the “cytotoxicity compared to the control (LDH-assay)” value in the data set on hDPSCs [1] (all concentrations (0.1, 1, 10, 100 μg/ml)) is “significantly lower cytotoxicity”.

B1: S100-A8: recombinant of the protein from which the peptide was derived (PROSPEC); UniProtKB-P05109 (protein, UniProt P05109 1-93, looked up)
Protein S100-A8: MLTELEKALNSIIDVYHKYSLIKGNFHAVYRDDLKKLLETECPQYIRKKGADVWFKELDINTDGAVNFQEFLILVIKMGVAAHKKSHEESHKE
Turning to B1, the “effect on pulp cells in vitro” value in the data set with pulp cells was “activates proliferation, differentiation, and mineralization abilities”. In data set [2], the “structure of the tertiary dentin compared to the samples treated with the peptides (HE staining)” value is “sparse structure”, the “number of samples with tertiary dentin formation that completely sealed the exposed pulp region” value worked out at 1 samples and the “closure of the surface of the exposed pulp (HE staining)” value is on record as “completely closed by the formed tertiary dentin”. In addition, in the data set on hDPSCs [3] (GO Term analysis), the “expression levels of proteins promoting MAPK signaling pathway (MAP2K1, CDH2, NRAS, MAP1, CRK, PSMB7) versus control” value was “decreased” and the “expression levels of proteins promoting NFκB signaling pathway (FLOT1, 3KCR1, LYRIC, GJA1, S100A-13, NOL3) versus control” value is on record as “more increased”. In addition, in the data set with hDPSCs [3] (setting [4]), the “cytoplasm-derived proteins whose expression levels were more decreased than in the control” value is 67 proteins, the “cytoplasm-derived proteins whose expression levels were more increased than in the control” value worked out at 250 proteins, the “plasma membrane-derived proteins whose expression levels were more decreased than in the control” value was found to be 97 proteins and the “plasma membrane-derived proteins whose expression levels were more increased than in the control” value was 158 proteins. For the same molecule, the “tertiary dentin induction in the direct pulp capping experiment” value in the data set on exposed pulp was “completely covers the surface of the exposed pulp”.

B2: S100-A9: recombinant of the protein from which the peptide was derived (PROSPEC); UniProtKB-P06702 (protein, UniProt P06702 1-114, looked up)
Protein S100-A9: MTCKMSQLERNIETIINTFHQYSVKLGHPDTLNQGEFKELVRKDLQNFLKKENKNEKVIEHIMEDLDTNADKQLSFEEFIMLMARLTWASHEKMHEGDEGPGHHHKPGLGEGTP
Take B2: in data set [2], the “structure of the tertiary dentin compared to the samples treated with the peptides (HE staining)” value is “sparse structure”, the “number of samples with tertiary dentin formation that completely sealed the exposed pulp region” value is recorded as 2 samples and the “closure of the surface of the exposed pulp (HE staining)” value is “completely closed by the formed tertiary dentin”.
